{
  "source": "patent US12702694B2",
  "about": "“Methods for identification, assessment, prevention, and treatment of metabolic disorders using SLIT2” (Dana-Farber Cancer Institute, Inc., priority 2015, dated 2026)",
  "molecules": {"B1": {"name": "Slit2: Slit family secreted extracellular matrix protein, full length ~180 kDa; used as commercial recombinant protein or adenovirally expressed (protein)", "chain": "QACPAQCSCSGSTVDCHGLALRSVPRNIPRNTERLDLNGNNITRITKIDFAGLRHLRVLQLMENRISTIERGAFQDLKELERLRLNRNNLQLFPELLFLGTAKLYRLDLSENQIQAIPRKAFRGAVDIKNLQLDYNQISCIEDGAFRALRDLEVLTLNNNNITRLSVASFNHMPKLRTFRLHSNNLYCDCHLAWLSDWLRQRPRVGLYTQCMGPSHLRGHNVAEVQKREFVCSGHQSFMAPSCSVLHCPAACTCSNNIVDCRGKGLTEIPTNLPETITEIRLEQNSIRVIPPGAFSPYKKLRRLDLSNNQISELAPDAFQGLRSLNSLVLYGNKITELPKSLFEGLFSLQLLLLNANKINCLRVDAFQDLHNLNLLSLYDNKLQTVAKGTFSALRAIQTMHLAQNPFICDCHLKWLADYLHTNPIETSGARCTSPRRLANKRIGQIKSKKFRCSGTEDYRSKLSGDCFADLACPEKCRCEGTTVDCSNQRLNKIPDHIPQYTAELRLNNNEFTVLEATGIFKKLPQLRKINFSNNKITDIEEGAFEGASGVNEILLTSNRLENVQHKMFKGLESLKTLMLRSNRISCVGNDSFIGLGSVRLLSLYDNQITTVAPGAFDSLHSLSTLNLLANPFNCNCHLAWLGEWLRRKRIVTGNPRCQKPYFLKEIPIQDVAIQDFTCDDGNDDNSCSPLSRCPSECTCLDTVVRCSNKGLKVLPKGIPKDVTELYLDGNQFTLVPKELSNYKHLTLIDLSNNRISTLSNQSFSNMTQLLTLILSYNRLRCIPPRTFDGLKSLRLLSLHGNDISVVPEGAFNDLSALSHLAIGANPLYCDCNMQWLSDWVKSEYKEPGIARCAGPGEMADKLLLTTPSKKFTCQGPVDITIQAKCNPCLSNPCKNDGTCNNDPVDFYRCTCPYGFKGQDCDVPIHACISNPCKHGGTCHLKEGENAGFWCTCADGFEGENCEVNIDDCEDNDCENNSTCVDGINNYTCLCPPEYTGELCEEKLDFCAQDLNPCQHDSKCILTPKGFKCDCTPGYIGEHCDIDFDDCQDNKCKNGAHCTDAVNGYTCVCPEGYSGLFCEFSPPMVLPRTSPCDNFDCQNGAQCIIRINEPICQCLPGYLGEKCEKLVSVNFVNKESYLQIPSAKVRPQTNITLQIATDEDSGILLYKGDKDHIAVELYRGRVRASYDTGSHPASAIYSVETINDGNFHIVELLTLDSSLSLSVDGGSPKVITNLSKQSTLNFDSPLYVGGMPGKNNVASLRQAPGQNGTSFHGCIRNLYINSELQDFRKMPMQTGILPGCEPCHKKVCAHGMCQPSSQSGFTCECEEGWMGPLCDQRTNDPCLGNKCVHGTCLPINAFSYSCKCLEGHGGVLCDEEEDLFNPCQMIKCKHGKCRLSGVGQPYCECNSGFTGDSCDREISCRGERIRDYYQKQQGYAACQTTKKVSRLECRGGCAGGQCCGPLRSKRRKYSFECTDGSSFVDEVEKVVKCGCARCAS"}, "B2": {"name": "Slit2-C: ~50 kDa C-terminal cleavage fragment of Slit2 beginning at TSP (SEQ ID NO: 22); adenovirally expressed or purified FLAG-tagged protein (protein, listed as Homo sapiens)", "chain": "TSPCDNFDCQNGAQCIIRINEPICQCLPGYLGEKCEKLVSVNFVNKESYLQIPSAKVRPQTNITLQIATDEDSGILLYKGDKDHIAVELYRGRVRASYDTGSHPASAIYSVETINDGNFHIVELLTLDSSLSLSVDGGSPKVITNLSKQSTLNFDSPLYVGGMPGKNNVASLRQAPGQNGTSFHGCIRNLYINSELQDFRKMPMQTGILPGCEPCHKKVCAHGMCQPSSQSGFTCECEEGWMGPLCDQRTNDPCLGNKCVHGTCLPINAFSYSCKCLEGHGGVLCDEEEDLFNPCQMIKCKHGKCRLSGVGQPYCECNSGFTGDSCDREISCRGERIRDYYQKQQGYAACQTTKKVSRLECRGGCAGGQCCGPLRSKRRKYSFECTDGSSFVDEVEKVVKCGCARCAS", "modifications": "FLAG tag", "notes": "adenovirally expressed or purified FLAG-tagged protein"}},
  "key": {"primary inguinal cells": {"tested_on": "primary inguinal cells", "assay": "Thermogenic gene expression in primary inguinal cells with adenoviral overexpression", "assay_type": "cell-based, Mus musculus", "protocol": "Inguinal and brown stromal-vascular fractions were obtained from 6 weeks old male or newborn mice (postnatal days 5-10) for white and brown fat cultures, respectively. Inguinal fat tissue was dissected and washed with PBS, minced and digested for 45 min at 37° C. in PBS containing 10 mM CaCl2), 2.4 U/ml dispase II (Roche) and 10 mg/ml collagenase D (Roche). Brown fat tissue was dissected, washed with PBS, minced and digested for 45 min at 37° C. in PBS containing 1.3 mM CaCl2, 123 mM NaCl, 5 mM KCl, 5.0 mM glucose, 100 mM HEPES, 4% BSA and 1.5 mg/ml collagenase B (Roche). Digested tissue was filtered through a 100-μm cell strainer and centrifuged at 600 g for 10 min. […] For adenoviral overexpression of Slit2-FL, Slit2-N, Slit2-C, LacZ or Cre, virus was added at day 2 of differentiation at a titer of 10^8 particles/well and cells were analyzed at day 6-7. […]\n(§1) RNA was extracted from cultured cells or frozen tissue samples using TRIzol®, purified with QIAGEN RNeasy® minicolumns. Normalized RNA was reversed transcribed using a high-capacity cDNA reverse transcription lot (Applied Biosystems) and cDNA was analyzed by qRT-CPR. Relative mRNA levels were calculated using the comparative CT method and normalized to cyclophilin miRNA. […]"}, "high fat diet-fed mice": {"tested_on": "high fat diet-fed mice", "assay": "Whole body energy expenditure (CLAMS) and tissue weights", "assay_type": "in vivo, Mus musculus", "protocol": "Glucose tolerance tests were performed on mice 7 days post-injection with adenovirus. […] Animals were fasted overnight and then received intraperitoneal glucose at […]. Energy expenditure was analyzed using a Comprehensive Lab Animal Monitoring System (Columbus Instruments). Cold exposure and thermoneutrality experiments were performed in Balb/c mice at 4° C. or 30° C., respectively. Total levels of cholesterol, free fatty acids, triglycerides and insulin were measured at the Core Facility at Joslin Diabetes Center."}, "lean mice": {"tested_on": "lean mice", "assay": "Tissue gene expression after intravenous delivery of adenovirus to lean mice", "assay_type": "in vivo, Mus musculus", "protocol": "All animal experiments were approved by the Institutional Animal Care and Use Committee of the Beth Israel Deaconess Medical Center. Mice (Mus musculus) were obtained from Jackson Laboratories, maintained in 12 hour light-lark cycles (6 a.m.-6 p.m.) at 22° C., and fed a standard irradiated rodent chow diet or a high-fat diet (60% fat) for 12-20 weeks. AAV-8 viruses (Penn Vector Core) and adenoviruses (Vector Biolabs or constructed in-house) were injected at a titer of 10^11 or 10^10 per mouse, respectively. All experiments were done with male mice. The aP2-PRDM16 transgenic mice have been previously described in Seale et al. (2011) J. Clin. Invest. 121:96-105. PRDM16-floxed mice were crossed with adiponectin-Cre and were maintained on a pure C57BL/6 background (Cohen et al. (2014) Cell 156:304-316). The Slit2-floxed mice have been described previously in Rama et al. (2015) Nat. Med. 21:483-491. Lean C57BL/6 mice were obtained from Jackson Laboratories and were […].\nas §1, with “[…]. All primers used are listed with their sequences in Table 3 as follows:” for “miRNA.”\nSlit2 full-length (untagged and Myc-DDK tagged) expression plasmids and corresponding LacZ control plasmids in adenovirus was purchased from Vector Biolabs. To construct the Slit2-N and Slit2-C ENTR clones, PCR primers were designed to amplify the signal peptide, N-terminal, and C-terminal Slit2 from mouse cDNA (OriGene MR227608). To construct the Slit2-N and Slit2-C ENTR clone, the Slit2N gene was amplified from mouse Slit2 cDNA to create PCR fragments corresponding to Slit2-signal peptide and Slit2-N that were ligated into the pENTR1a dual selection vector. The Slit2-C PCR fragment was sub-cloned into the pENTR1a vector containing the signal peptide. The Slit2-N and Slit2-C expression clones in which the fragments are fused to a C-terminal V5 tag were generated by performing the LR reaction between pENTR/D-TOPO-Slit2N or pENTR/D-TOPO-Slit2-C and pAD/CMV/V5-DEST (Life Technologies). The expression construct was cut with Pac and transfected into HEK-293A cells to produce crude adenoviral stock. Amplified virus was purified and concentrated using the Vivapure® adenopack 100 (Sartorius Stedim Biotech) and buffer exchanged to 10 mM Tris-Cl at pH 8.0, 2 mM MgCl2, 4% w/v sucrose. Adenovirus titer was calculated using an Adeno-X™ Rapid Titer kit (Clontech). For primary adipocytes a concentration of 10^8 pfu/well was used and 10^10 pfu/mouse were used for in vivo experiments. Expression levels of Slit2-N and Slit2-C were confirmed after 48 hours post infection by Western blot analysis using a V5 antibody (Life Technologies). Expression of Slit2-N and Slit2-C was performed by amplification from mouse Slit2 cDNA and ligated into the pENTR dual selection vector with a signal peptide sequence."}, "UCP1": {"tested_on": "UCP1", "assay": "UCP1 immunohistochemistry on adipose tissue sections", "assay_type": "in vivo, Mus musculus", "details": "day 7", "protocol": "Tissues were fixed in 4% paraformaldehyde. Paraffin embedding and sectioning were done by the Dana-Farber/Harvard Cancer Center Research Pathology core facility. For UCP1 immunohistochemistry, slides were deparaffinized in xylene, hydrated in descending 95%, 80% and 70% ethanol, and rinsed in water before heat-mediated antigen retrieval in 10 mM, pH 6.0 sodium citrate buffer. Quenching of endogenous peroxidases was performed using peroxidase quenching solution (Invitrogen). Slides were blocked in 10% goat serum and incubated with rabbit polyclonal UCP1 antibody (Abcam, ab10983) at […] in PBS-T/1% BSA overnight at 4° C. Slides were washed in PBS-T and incubated with 1:500 donkey anti-rabbit IgG HRP-linked antibody (GE healthcare) before developing using a SuperPicture™ 3rd Gen IHC Detection Kit (Invitrogen). Hematoxylin was used as counterstain. […] Digital images were captured with a Nikon Digital Sight DS-Fil color camera and NIS-Elements acquisition software."}, "[1]": {"details": "i.v. Slit2 adenovirus vs LacZ, lean mice, day 7, FIG. 4E"}, "[2]": {"details": "16-week high fat diet-fed mice, Slit2-C adenovirus vs LacZ"}, "[3]": {"details": "lean mice, Slit2-C adenovirus, FIG. 6D"}},
  "data": [
    {"molecule": "B1", "values": [
      {"measurement": "increase in Ucp1 mRNA", "setting": "primary inguinal cells; adenovirus on day 2 of differentiation, analyzed day 7, vs lacZ, FIG. 3D", "value": 8, "unit": "fold"},
      {"measurement": "energy expenditure, compared with Slit2-C experiments", "setting": "high fat diet-fed mice; full-length Slit2 adenovirus, FIGS. 9A-9E", "value": "comparable results"},
      {"measurement": "vascular and neuronal markers in fat or skeletal muscle", "setting": "lean mice; 7 days postinjection, FIGS. 12D-12F", "value": "did not change"},
      {"measurement": "induction of PRDM16 in brown fat", "setting": "lean mice; i.v. Slit2 adenovirus", "value": "greater than 2 fold"},
      {"measurement": "other thermogenic genes or UCP1 protein in brown fat", "setting": "lean mice; i.v. Slit2 adenovirus", "value": "without any changes"},
      {"measurement": "induction of Ucp1 and Elovl3 in inguinal adipose tissue", "setting": "lean mice; i.v. Slit2 adenovirus vs LacZ, day 7, FIG. 3F", "value": 2, "unit": "fold"},
      {"measurement": "induction of Prdm16 in iWAT", "setting": "lean mice; [1]", "value": 1.5, "unit": "fold"},
      {"measurement": "induction of Ucp1 in iWAT", "setting": "lean mice; [1]", "value": 2.5, "unit": "fold"},
      {"measurement": "lipolysis or lipogenesis gene expression in the liver", "setting": "lean mice; i.v. Slit2 adenovirus, FIG. 4A", "value": "No changes"},
      {"measurement": "skeletal muscle gene expression of Glut1, Glut4 and Tnfa", "setting": "lean mice; i.v. Slit2 adenovirus, FIG. 4B", "value": "no gene expression changes"},
      {"measurement": "white fat selective genes, including Leptin and Resistin", "setting": "lean mice; iWAT, i.v. Slit2 adenovirus, FIG. 4E", "value": "strongly suppressed"},
      {"measurement": "iWAT UCP1 protein", "setting": "UCP1; histological sections, i.v. Slit2 adenovirus", "value": "increased"}
    ]},
    {"molecule": "B2", "values": [
      {"measurement": "thermogenic gene expression in primary inguinal cells", "setting": "primary inguinal cells; Slit2-C vs LacZ virus, day 7, FIG. 6A", "value": "comparable to full-length Slit2"},
      {"measurement": "body weight", "setting": "high fat diet-fed mice; [2]", "value": "no observable difference"},
      {"measurement": "food intake", "setting": "high fat diet-fed mice; [2]", "value": "no observable difference"},
      {"measurement": "locomotor activity", "setting": "high fat diet-fed mice; [2]", "value": "no observable difference"},
      {"measurement": "respiratory exchange ratio (RER)", "setting": "high fat diet-fed mice; [2]", "value": "no observable difference"},
      {"measurement": "whole-body oxygen consumption", "setting": "high fat diet-fed mice; 16-week high fat diet-fed mice, Slit2-C adenovirus vs LacZ, normalized to total body weight", "value": "induced"},
      {"measurement": "mass of the brown and inguinal depots", "setting": "high fat diet-fed mice; day 7 post-injection, FIGS. 8F, 8I", "value": "reduction"},
      {"measurement": "induction of Ucp1 mRNA in iWAT", "setting": "lean mice; lean mice injected with Slit2-C adenovirus, FIG. 6C", "value": 3, "unit": "fold"},
      {"measurement": "expression of mitochondrial genes (Atp5b, Uqcrb, Atp6vOa2, Atp9b, Cox5a) in BAT", "setting": "lean mice; [3]", "value": "upregulation"},
      {"measurement": "transcriptional regulators Prdm16, Nrf1, and Erra in classical brown fat", "setting": "lean mice; [3]", "value": "significant changes"},
      {"measurement": "UCP1 staining in inguinal white fat depots", "setting": "UCP1; Slit2-C vs control animals, FIGS. 6E, 6G", "value": "multiple pockets of UCP1-positive cells"}
    ]}
  ]
}
